Laboratory results published in patent US20180105596A1 (ELSALYS BIOTECH, published 2018).
Residue numbers refer to the chain shown, from its start. Each block holds one binder with its values, some of them ahead of it.

Key:
hTyro 3-ECD = biological target: T1, hTyro 3-ECD; test: ELISA, ECD coated 1 µg/well, scFv 1 µg/mL, anti-tag-HRP
T1 construct: not the His-Strep tagged ECD m13; also called Recombinant Human Dtk-Fc Chimera (R&D Systems 859-DK-100); not shown: Human Fc, and any linker, of the commercial chimera (R&D Systems 859-DK-100)
T1 chain: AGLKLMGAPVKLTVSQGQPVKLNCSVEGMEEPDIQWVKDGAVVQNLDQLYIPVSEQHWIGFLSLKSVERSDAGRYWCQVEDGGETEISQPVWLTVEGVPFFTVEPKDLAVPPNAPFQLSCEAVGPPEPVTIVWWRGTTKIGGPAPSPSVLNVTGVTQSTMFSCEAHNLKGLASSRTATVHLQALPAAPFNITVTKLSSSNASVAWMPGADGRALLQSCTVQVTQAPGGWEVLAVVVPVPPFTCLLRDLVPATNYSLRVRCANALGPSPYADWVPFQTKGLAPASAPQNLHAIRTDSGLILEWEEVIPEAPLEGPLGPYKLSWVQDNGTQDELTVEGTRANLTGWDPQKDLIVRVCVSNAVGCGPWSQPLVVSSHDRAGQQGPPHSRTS
Description: (§1) Extracellular domains of hTyro 3 (859-DK-100), hAxl (154-AL-100) or hMer (891-MR-100) from R&D Systems were coated onto 96-wells microtiter plates (1 μg/well) in PBS and incubated overnight at 4° C. Plates were washed three times with PBS and blocked in PBS/3% BSA for 1 hour at RT. Plates were washed as above and scFvs were added at 1 μg/mL (diluted in PBS) and incubated for 1 hour at RT. Plates were washed three times with PBST (PBS/0.01% Tween-20) and secondary antibody anti-FLAG-HRP was added (Abcam, ab49763, 1/5000 dilution in blocking buffer) for 1 hour at RT. Plates were washed as above with PBST and signal was developed with Ultra-TMB reagent (Thermo Scientific, 34028).

[1] = biological target: T2, extracellular domain of human Axl, Fc fusion (R&D Systems 154-AL-100) (human, UniProt P30530 26-451); test: as above
T2 construct: Bought protein; also called hAxl; hAXL; not shown: Fc of the bought ECD-Fc fusion
T2 sequence: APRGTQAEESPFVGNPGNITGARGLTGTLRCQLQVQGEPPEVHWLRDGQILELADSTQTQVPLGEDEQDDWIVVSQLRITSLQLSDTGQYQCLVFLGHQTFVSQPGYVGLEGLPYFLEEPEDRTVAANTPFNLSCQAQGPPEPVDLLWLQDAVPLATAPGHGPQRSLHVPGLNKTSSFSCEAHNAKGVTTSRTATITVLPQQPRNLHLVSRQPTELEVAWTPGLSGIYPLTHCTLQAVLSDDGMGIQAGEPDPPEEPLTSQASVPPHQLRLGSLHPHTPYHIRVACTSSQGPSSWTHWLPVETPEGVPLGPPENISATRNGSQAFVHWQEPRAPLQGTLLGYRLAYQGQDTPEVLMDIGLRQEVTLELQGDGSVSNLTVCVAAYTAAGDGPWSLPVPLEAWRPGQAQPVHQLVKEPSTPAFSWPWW
Description: as §1

[2] = biological target: T3, extracellular domain of human Mer, Fc fusion (R&D Systems 891-MR-100) (human, UniProt Q12866 21-505); test: as above
T3 construct: Bought protein; also called hMer; hMER; not shown: Fc of the bought ECD-Fc fusion
T3 sequence: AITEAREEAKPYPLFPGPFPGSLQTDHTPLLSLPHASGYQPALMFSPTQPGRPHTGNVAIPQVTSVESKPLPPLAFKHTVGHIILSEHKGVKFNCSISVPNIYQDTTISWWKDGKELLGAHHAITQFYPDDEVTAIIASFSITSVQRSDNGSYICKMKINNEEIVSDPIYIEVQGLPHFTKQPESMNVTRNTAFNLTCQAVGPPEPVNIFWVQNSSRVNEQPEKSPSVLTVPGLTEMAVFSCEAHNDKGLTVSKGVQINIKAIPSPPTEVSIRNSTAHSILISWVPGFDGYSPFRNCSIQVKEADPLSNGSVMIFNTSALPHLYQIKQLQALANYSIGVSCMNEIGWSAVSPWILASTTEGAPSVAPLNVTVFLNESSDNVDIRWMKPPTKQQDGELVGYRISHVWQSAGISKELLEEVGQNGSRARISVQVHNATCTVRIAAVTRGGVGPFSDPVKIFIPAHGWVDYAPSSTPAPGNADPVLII
Description: as §1

[3] = biological target: T4, Ig-1 and Ig-2 domains fragment of human Tyro3 ECD, His-Strep tagged (human); test: sandwich ELISA, Strep-tagged fragment captured on StrepMAB plate, scFv 10 µg/mL (Table 17), anti-FLAG-HRP
T4 construct: also called Ig1-Ig2 fragment
T4 chain: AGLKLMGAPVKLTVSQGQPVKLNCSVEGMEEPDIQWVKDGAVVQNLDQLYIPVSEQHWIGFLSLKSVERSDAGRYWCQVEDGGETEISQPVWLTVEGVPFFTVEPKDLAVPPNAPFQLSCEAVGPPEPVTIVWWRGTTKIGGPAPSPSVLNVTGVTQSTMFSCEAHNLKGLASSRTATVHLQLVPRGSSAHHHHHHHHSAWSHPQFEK

[4] = biological target: T5, Ig-1 domain fragment of human Tyro3 ECD, His-Strep tagged (human); test: as above
T5 chain: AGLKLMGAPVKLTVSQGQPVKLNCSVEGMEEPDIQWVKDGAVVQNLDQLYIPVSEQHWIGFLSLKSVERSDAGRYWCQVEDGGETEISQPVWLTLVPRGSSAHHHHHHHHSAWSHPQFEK

Tyro3 ECD Ig2-FNIII 1 = biological target: T6, Tyro3 ECD Ig2-FNIII 1; test: as above
T6 construct: also called Ig2 + FNIII 1 fragment of hTyro3 ECD, His-Strep tagged
T6 fragment: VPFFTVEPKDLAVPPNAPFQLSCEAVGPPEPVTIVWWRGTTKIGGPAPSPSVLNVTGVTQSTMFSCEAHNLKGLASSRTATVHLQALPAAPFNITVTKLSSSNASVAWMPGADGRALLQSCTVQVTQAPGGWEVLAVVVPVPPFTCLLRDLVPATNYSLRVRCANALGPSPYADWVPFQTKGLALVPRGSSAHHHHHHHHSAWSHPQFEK

[5] = biological target: T7, Tyro3 ECD FNIII 1-FNIII-2; test: as above
T7 construct: also called FNIII 1 + FNIII 2 fragment of hTyro3 ECD, His-Strep tagged
T7 fragment: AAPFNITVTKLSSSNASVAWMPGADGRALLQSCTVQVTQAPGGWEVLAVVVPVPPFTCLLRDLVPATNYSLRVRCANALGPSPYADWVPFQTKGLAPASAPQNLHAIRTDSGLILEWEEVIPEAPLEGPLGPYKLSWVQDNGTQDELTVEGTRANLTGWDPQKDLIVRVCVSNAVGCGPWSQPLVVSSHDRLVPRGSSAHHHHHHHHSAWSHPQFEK

[6] = biological target: T8, recombinant His-Strep tagged human Tyro3 extracellular domain (human, UniProt Q06418 41-429); test: sandwich ELISA, Strep-tagged hTyro3 ECD captured on StrepMAB plate, IgG 3-fold from 3 µg/mL, anti-human IgG1-HRP
T8 construct: also called hTyro3 ECD; full Tyro3 ECD
T8 sequence: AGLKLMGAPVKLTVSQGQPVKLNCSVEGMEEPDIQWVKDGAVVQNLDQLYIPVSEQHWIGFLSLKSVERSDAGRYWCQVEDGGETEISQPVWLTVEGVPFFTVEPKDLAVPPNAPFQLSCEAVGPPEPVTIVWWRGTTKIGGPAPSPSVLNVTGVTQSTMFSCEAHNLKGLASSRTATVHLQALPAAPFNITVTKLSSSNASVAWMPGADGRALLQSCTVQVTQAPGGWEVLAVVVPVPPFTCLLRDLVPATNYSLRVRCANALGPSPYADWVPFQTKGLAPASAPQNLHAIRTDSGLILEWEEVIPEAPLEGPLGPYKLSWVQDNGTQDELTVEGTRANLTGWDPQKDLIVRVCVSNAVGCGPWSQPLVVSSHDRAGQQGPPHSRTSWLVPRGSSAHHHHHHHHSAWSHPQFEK
Description: (§2) A double sandwich ELISA was developed. This assay consisted in measuring the binding of the anti-Tyro3 antibodies to be tested on immobilized strep-tagged entire human Tyro3 ECD captured directly on ELISA plate pre-coated with an anti-strep mAb (StrepMAB-Immo coated microplates from IBA biotech). Briefly, the 96 wells of StrepMAB-Immo coated microplate were washed three times with 300 μL of the PBS Tween 0.2% (referred as ELISA washing solution). The capture of an excess of purified strep tagged hTyro3 ECD protein was achieved by a one hour incubation at room temperature. In these experiments, 3 μg of purified protein diluted in PBS, BSA 1% (referred as ELISA diluent solution) were immobilized per well. The wells were washed three times with 300 μL of the washing solution. The non-specific binding sites on the well surface were blocked during 60 min at room temperature with 200 μL/well of blocking solution (PBS, BSA 3%). The wells were washed five times with 300 μL of the washing solution. Then, 100 μl (in duplicates) of the different concentrations of anti-Tyro3 antibodies to be tested diluted in ELISA diluent solution, were added per well and allowed to incubate during 1 hour at room temperature. An Irrelevant control IgG2656 was also added in this experiment. For anti-Tyro3 antibodies in the ScFv format, experiments were performed with 6 concentrations in duplicates (FIG. 3A). For anti-Tyro3 antibodies in the IgG format, experiments were performed with 9 concentrations in duplicates (FIG. 3B). […] For IgGs experiments, starting concentration for first dilution was 3 μg/ml and then dilutions of 3 fold in the ELISA diluent solution were performed. The wells were washed five times with 300 μL of the washing solution. […] The mix was allowed to incubated 60 min at room temperature.

[7] = biological target: T9, cynomolgus Tyro3 ECD, His-Strep tagged; test: sandwich ELISA, Strep-tagged cynomolgus Tyro3 ECD captured on StrepMAB plate, IgG 3-fold from 3 µg/mL, anti-human IgG1-HRP
T9 construct: also called cyno TYRO3 ECD 8hisstrep
T9 extracellular domain: T8 sequence with V67A, I191V, A309G, R376H
Description: [The procedure below names another species; the source lists this species under the same test.] as §2

binding result (hTyro 3-ECD): binds | binding result [1]: no binding (tested: 1 µg/mL) | binding result [2]: no binding (tested: 1 µg/mL) | binding result [3]: binds | binding result [4]: binds | binding result (Tyro3 ECD Ig2-FNIII 1): binds | binding result [5]: no binding (tested: 10 µg/mL)
B1: anti-Tyro3 scFv 2413 (scFv, V domains shown)
VH: EVQLVQSGADVKKPGASLTISCQASGYTFTDYWISWVRQKPGKGLEWMGRIHTYQSSTRYGPSFQGHVTISADRSTATAYLQWRSLEASDTAMYYCVRHHSTTTANPYSSWGPGTLVTVSS
VL: SYELTQPPSVSVSPGQTARITCSGDALPKKYAYWYQQKSGQAPVLVIYEDDKRLSGIPERFSGSSSGTMATLTISGAQVEDEADYYCYSTEINGNYAVFGGGTKLTVL
notes: Tested as a single-chain Fv made in E. coli

EC50 (read off the curve) [6]: ~0.02 mg/L | EC50 (read off the curve) [7]: ~0.02 mg/L
B2: IgG2411 (antibody, V domains shown)
VH: EVQLVQSGADVKKPGASLTISCQASGYTFTDYWISWVRQKPGKGLEWMGSITRSSSRTHYGPSFQGHVTISADRSTATAYLQWRSLEASDTAMYYCVRGYTHLRTWGPGTLVTVSS
VL: B1 VL with D51S, L54S, T90A, E91N, I92Q, N93R, A97M
notes: also called IGX2411

binding result (hTyro 3-ECD): binds | binding result [1]: no binding (tested: 1 µg/mL) | binding result [2]: no binding (tested: 1 µg/mL) | binding result [3]: no binding (tested: 10 µg/mL) | binding result [4]: no binding (tested: 10 µg/mL) | binding result (Tyro3 ECD Ig2-FNIII 1): binds | binding result [5]: binds
B3: anti-Tyro3 scFv 2718 (scFv, V domains shown)
VH: EVQLVQSGADVKKPGASLTISCQASGYTFTDYWISWVRQKPGKGLEWMGHINPMRSTTTYGPSFQGHVTISADRSTATAYLQWHSLEASDTAMYYCVRNDNHDDYTYTDDWGPGTLVTVSS
VL: B1 VL with D51T, L54H, T90A, I92H, N93R
notes: as for B1

binding result (hTyro 3-ECD): binds | binding result [1]: no binding (tested: 1 µg/mL) | binding result [2]: no binding (tested: 1 µg/mL) | binding result [3]: binds | binding result [4]: binds | binding result (Tyro3 ECD Ig2-FNIII 1): binds | binding result [5]: no binding (tested: 10 µg/mL)
B4: anti-Tyro3 scFv 2411 (scFv, V domains shown)
VH: B2 VH
VL: B1 VL with D51S, L54S, T90A, E91N, I92Q, N93R, A97M
notes: as for B1
